Assay: yeast display, Sf9 membrane polyspecificity reagent, FACS + sequencing; frameworks hold sequencing errors
How it was run: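 Synthetic nanobody libraries on Saccharomyces cerevisiae BJ5465 were galactose-induced for 36–48 hours, stained 1 hour at 4 °C with 10% biotinylated, detergent-solubilized Sf9 membrane reagent and enriched on streptavidin microbeads. FACS then separated cells into low and high (top ~1%) gates by anti-HA (expression) and streptavidin (reagent binding) fluorescence. Genes were colony-PCR amplified, MiSeq 2 × 250 sequenced and CDR-length filtered. A clone's polyreactivity label is that of its gate of origin.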

Row | Sequence | polyreactivity (PSR sort gate)
1 | QVQLVESGGGLVQAGGSLRLSCAASGFTFPYYAMGWYRPAPGKDRELVARISSGGSTHYADSVKGRFTISRDNAKNTVYVQMNSLKPEDTADYYCAREPWWGYHGEYDYWGQGTEVTVSS | high polyreactivity
2 | QVQLVESGGGLVQAGGSLRLSCAASGFTFPYYAMGWYRPAPGKERELVAAISWIGDSTYYADSVKGRFTISRDNAKNTVYLQMNSLKPEDTAVYYCAAGYKWSIPNRDYDYWGQGTQVTVSS | low polyreactivity
3 | QVQLVESGGGLVQAGGSLRLSCAASGFTFPYYAMGWYRQAPGKERELVATISNGGNTYYADSVKGRFTISRDNAKNTVYLQMNSLKPEDTAVYYCNAVVWAWMGYWGQGTQVTVSS | high polyreactivity
4 | QVQLVESGGGLVQAGGSLRLSCAASGFTFPYYAMGWYRQAPGTERELVASNSRSGSTNYADSVKGRFTISRDNAKNTVYLQMNSLKPEDTAVYYCAAQLYSRGGYWGHGTQVTVSS | high polyreactivity
5 | QVQLVESGGGLVQAGGSLRLSCAASGFTFQAYAMGWYRQAPGKVRELVAAINFSTGRTYYADSVKGRFTISRDNAKNTVYLQMNSLKPEDTAVYYCAADGSWTRSYDFDYWGQGTQVTVSS | high polyreactivity
6 | QVQLVESGGGLVQAGGSLRLSCAASGFTFQGNAKGCYIQAPGKERELVGAISYDGGSTYYADSVKGRFTISRDNAKNTVYLQMNSLKPEDTAVYYCAAYVGTWYYYWGQGTQVTVSS | high polyreactivity
7 | QVQLVESGGGLVQAGGSLRLSCAASGFTFQGNAMGWYRQAPGKERELVAAISWSGGRTYYADSVKGRFTISRDNAKNTVYCQMNSLKPEDTAVYYCAIVYKDVSGDDYWGQGTQVTVSS | low polyreactivity
8 | QVQLVESGGGLVQAGGSLRLSCAASGFTFQHNSMGWYRQAPGKERELVAAISLGGSTNYADSVKGRFTISRDNAKNSVYLQMNSLKPEDSAVYYCAAYDWRVLWGYDYWGQGTQVTVSS | low polyreactivity
9 | QVQLVESGGGLVQAGGSLRLSCAASGFTFQINTMGWYRQAPGKERELVAAINYSGGSTYYADSVKGRFTISRDNAKNTDYLQMNSLKPEDTAVYYCATDHYRNPWRWYRYGYWGQGTQVTVSS | low polyreactivity
10 | QVQLVESGGGLVQAGGSLRLSCAASGFTFQKYAMGWYRQAPGKERELVAAISSSGGRTYYADSVKGRFTISRDNAKNTVYLQMNSLKPEDTAVYYCNAVPGYVYDYQYWGQGTQVTVSS | high polyreactivity
11 | QVQLVESGGGLVQAGGSLRLSCAASGFTFQKYAMGWYRQAPGKERELVAAISSSGGRTYYADSVKGRFTISRDNAKNTVYLQMNSLKPEDTAVYYCNAVPGYVYYYQYWGQGTQVTVSS | high polyreactivity
12 | QVQLVESGGGLVQAGGSLRLSCAASGFTFQNYVMGWYRQAPGKERELVAAINSGGRTYYADSVKGRFTISRDNAKNTVYLQMNSLKPEDTAVYYCNAVQPATYKYRSHVIEYDYWGQGSQVTVSS | high polyreactivity
13 | QVQLVESGGGLVQAGGSLRLSCAASGFTFQYYAMGCYRQAPGKERELVAAISARDGSTYYADSVKGRFTISRDNAKNTVYLQMNSLKPEDTAVYYCAARSNYRNAYAYYYWGQGTQVTVSS | high polyreactivity
14 | QVQLVESGGGLVQAGGSLRLSCAASGFTFQYYAMGWYIQAPGKERELVATITTSGGNTYYADSVKGRFTISRDNAKNTVYLQMNSLKPEDTAVYYCAARRYRASSRGYGYWGQGTQVTVSS | high polyreactivity
15 | QVQLVESGGGLVQAGGSLRLSCAASGFTFQYYAMGWYRQAPGKERELVAAINWSGGRTYYADSVKGRFTISRDNAKNTVYLQMNSLKPEDTAVYYCAATRSFSGGYGYVSYDYWGQGTQVTVSS | high polyreactivity
16 | QVQLVESGGGLVQAGGSLRLSCAASGFTFRDNAMGWYRQAPGKERELVAAITRGGSTYYADSVKGRFTISRDNAKNTVYLQMNSLKPEDTAVYYCAKALYRREYSSGGYYRFDYWGQGTQVTVSS | high polyreactivity
17 | QVQLVESGGGLVQAGGSLRLSCAASGFTFRDNAMGWYRQAPGKERELVAAITWDGGSTYYADSVKGRFTISRDNAKNTVYLQMYSLKPEDTAVYYCAASRYYPRYFKRYYYWGQGTQVTVSS | high polyreactivity
18 | QVQLVESGGGLVQAGGSLRLSCAASGFTFRDNTMGWYRQAPGKERELVASISWSGGSTYYADSVKGRFTFSRDYAKNTVYLQMNSVKPEDTAVYYCAADDGSQYYFVSPHEYDYWGQGTQVTVSS | low polyreactivity
19 | QVQLVESGGGLVQAGGSLRLSCAASGFTFRDYAMGWYRQAPGKERELVATITWRVGSTFYADSVKGRFTISRDNAKNTVYLQMNSLKPEDTAVYYCADEDSNVVAYDYWGQGTQVTVSS | low polyreactivity
20 | QVQLVESGGGLVQAGGSLRLSCAASGFTFRDYVMGWYTQAPGKERELVAAISRSGASTYYADSVKGRFTISRDNAKNTVYLQMNSLKPEDTAVYYCAKTQAGYSPGTYDYWGQGTQVTVSS | high polyreactivity
21 | QVQLVESGGGLVQAGGSLRLSCAASGFTFRENAMGWYRQAPGKERELVAAISKRGGTTYYADSVKGRFTISRDNAKNTVYLQMNSLKPEDTAVYYCAAESYSGPYAYEYWGQGTQVTVSS | high polyreactivity
22 | QVQLVESGGGLVQAGGSLRLSCAASGFTFRENTMGWYRQAPGKERELVASISWSGGSTYYADSVKGRFTISRDNAKNTVYLQMNSLKPEDTAVYYCAATYAWLSKGYRGMDYWGQGTQVTVSS | low polyreactivity

Row | Sequence | polyreactivity (PSR sort gate)
23 | QVQLVESGGGLVQAGGSLRLSCAASGFTFRINAMGWYRQAPGKERELVAAISWSGGSTYYADSVKGRFTISRDNAKNTVYLQMNSLKPEDTAVYYCNKVQSSRYRSQRTFQYGYWGQGTQVTVSS | high polyreactivity
24 | QVQLVESGGGLVQAGGSLRLSCAASGFTFRIYTMGWYRQAPGKERELVAAIRWSDGTTYYADSVKGRFTISRDNAKNTVYLQMNSLKPEDTAVYYCAAYTYYYYYWGQGTQVTVSS | high polyreactivity
25 | QVQLVESGGGLVQAGGSLRLSCAASGFTFRKKAMGWYRQAPGKERELVAAIRGSAGSTYYADSVKGRFTNSRDNAKITVYLQMNSLQQEDTAVYYCATGGYPSLWYGYGYWGQGTQVTVSS | low polyreactivity
26 | QVQLVESGGGLVQAGGSLRLSCAASGFTFRKNAMGWYRHAPGKERELVAVISSSGGSTSYADSVKRRFTISRDNAKNTVYLQMNSLKPEDTAVYYCAAGSSRLRALYNYWGQGSQVTVSS | high polyreactivity
27 | QVQLVESGGGLVQAGGSLRLSCAASGFTFRKNAMGWYRQAPGKERELVAAINSSGGSTYYADSVKGRFTISRDNAKNTVYLQMKSLKQEDTAVYSCNAVGRSLARPRGDYWGQGTQVTVSS | high polyreactivity
28 | QVQLVESGGGLVQAGGSLRLSCAASGFTFRKNAMGWYRQAPGKERELVAAISRRGGRTYYADSVKGRFTISRDNAKNTVYLQMNSLKPEDSAVYYCNDDEYGGSSGRKGRYNYWGQGTQVTVSS | low polyreactivity
29 | QVQLVESGGGLVQAGGSLRLSCAASGFTFRKNAMGWYRQAPGKERELVAAISSGSGSTYYADSVKGRFTISRDNAKNTVYLQMNSLKPEDTAVYYCNSEAYYTTGYPTSDVFDRYDYWGKGTQVTVSS | low polyreactivity
30 | QVQLVESGGGLVQAGGSLRLSCAASGFTFRKYAMGWYRQAPGKERELVADISGGTGSTYYADSVKGRFTISRDNAKNTDYLHMNSLKPEDTAVYYCNAEGWYYLTEYGYWGQGTQLTVSS | low polyreactivity
31 | QVQLVESGGGLVQAGGSLRLSCAASGFTFRKYAMGWYRQAPGKESELVAAISWSGGSTYYADSVKGRFTISRDNAKNTVYLQMNSMKPEDTAVYYCAAPHWSPYDYWGQGTQVTVSS | high polyreactivity
32 | QVQLVESGGGLVQAGGSLRLSCAASGFTFRLVNAMGWYRQAPGKERELVAGINSGDITYYADSVKGRFTISRDNAKNTVYLQMNSLKPEDTAVYYCAARVAWGYDYWGQGTQVTVSS | low polyreactivity
33 | QVQLVESGGGLVQAGGSLRLSCAASGFTFRNYAMGWYIQAPGKERELVATISWSGTSTYYADSVKGRFTISRDNAKNTVYLQMNSLKPEDTAVYYCAARGRHSGYYSFPYYYWGQGTQVTVSS | low polyreactivity
34 | QVQLVESGGGLVQAGGSLRLSCAASGFTFRNYAMGWYRQAPGKEREFVAAISFSGGRTYYADSVKGRFTISRDNAKNTVYLQMNSLKPEDTAVYYCAKKSYSKYDYWGQGTQVTVSS | low polyreactivity
35 | QVQLVESGGGLVQAGGSLRLSCAASGFTFRPYVMGCYRQAPGKERELVAGISTGGSTYYADSVKGRFTISRDNAKNTVYLQMNSLKPEDTAVYYCAKRGKQYRKMNYWGQGTQVTVSS | high polyreactivity
36 | QVQLVESGGGLVQAGGSLRLSCAASGFTFRQNAMGWYIQAPGKERELVAAISRGGGGTHYADSVKGRFTISRDNAKNNVYLHMNSLKPEDTAVYYCAKRRYPTFVVPVYYWGQGTQVTVSS | high polyreactivity
37 | QVQLVESGGGLVQAGGSLRLSCAASGFTFRQNSIGWSRQAPGKERELVAAISRSGSRTYYADSVKGRFTISRDNAKNTVYLQMIRLKPEDTAVYYCKAVFSSFTVEYYWGQGTQVTVSS | high polyreactivity
38 | QVQLVESGGGLVQAGGSLRLSCAASGFTFRRNAMGWYRQAPGKERELVAAITASGGRTYYADSVKGRFTISRDYAKNTVYLQMNSLKPEDTAVFYCAARLRNIYYFRMGYWGQGTKVTVSS | high polyreactivity
39 | QVQLVESGGGLVQAGGSLRLSCAASGFTFRRNAMGWYRQAPGKERELVAAITRGGGSTYYADSVKGRFTISRDNAKNTVYLQMNSLKPEDTAVYYCAADGYYQYESWGQGTQVTVSS | high polyreactivity
40 | QVQLVESGGGLVQAGGSLRLSCAASGFTFRRYAMGWYIQAPGKERELVAAIRSTGGSTYYADSVKGRFTISRDNAKNTVYLQMNSLKPEDTAVYYCNAGTPVRGYNYWGQGTQVTVSS | high polyreactivity
41 | QVQLVESGGGLVQAGGSLRLSCAASGFTFRRYAMGWYRQAPGKERELVAAINWNGDSTYYADSVKGRFTISRDNAKNTVYLQMNSVKPEDTAVYYCATSDYYYDYWGQGTQVTVSS | high polyreactivity
42 | QVQLVESGGGLVQAGGSLRLSCAASGFTFRRYAMGWYRQAPGKERELVAAISIRGGRTYYADSVKGRFTISRDNAKNTVYLQMNSLKPEDTAVYYCAAEVGFWGYGGYYYWGQGTQVTVSS | high polyreactivity
43 | QVQLVESGGGLVQAGGSLRLSCAASGFTFRRYAMGWYRQAPGKERELVAAISYSGGITYYADSVKGRFTISRDNAKNTVYLQMNSLKPEDTAVYYCAAESVWTWYYTTAGMDYWGQGTQVTVSS | high polyreactivity

— the nanobody polyreactivity screen of Harvey et al. (2022)
